{"source": "paper PMC6117947", "about": "“A role for trypanosomatid aldo-keto reductases in methylglyoxal, prostaglandin and isoprostane metabolism” (Biochemical Journal, 2018)", "key": {"[1]": {"target": "Leishmania infantum prostaglandin F synthase 1 (LiPGFS1) (Leishmania infantum)", "test": "SEC; Superdex 75 10/300; LiPGFS1 kept 96 h at 4°C without a reducing agent, run without TCEP; the dimer relies on a disulfide bond"}, "[2]": {"substrate": "CC(=O)C=O", "test": "purified protein", "assay_type": "biochemical, Leishmania infantum", "conditions": "100 µM NADPH, 25 mM HEPES, 150 mM NaCl, pH 7.33"}, "[3]": {"substrate": "O=CC(=O)c1ccccc1", "test": "purified protein", "assay_type": "biochemical, Leishmania infantum", "conditions": "100 µM NADPH, 25 mM HEPES, 150 mM NaCl, pH 7.33"}, "[4]": {"substrate": "O=CC(O)CO", "test": "purified protein", "assay_type": "biochemical, Leishmania infantum", "conditions": "100 µM NADPH, 25 mM HEPES, 150 mM NaCl, pH 7.33"}, "[5]": {"substrate": "O=Cc1ccc([N+](=O)[O-])cc1", "test": "purified protein", "assay_type": "biochemical, Leishmania infantum", "conditions": "100 µM NADPH, 25 mM HEPES, 150 mM NaCl, pH 7.33"}, "[6]": {"substrate": "O=Cc1ccccc1[N+](=O)[O-]", "test": "purified protein", "assay_type": "biochemical, Leishmania infantum", "conditions": "100 µM NADPH, 25 mM HEPES, 150 mM NaCl, pH 7.33"}, "[7]": {"substrate": "CC(=O)C=O", "test": "purified protein", "assay_type": "biochemical, Trypanosoma brucei", "conditions": "100 µM NADPH, 25 mM HEPES, 150 mM NaCl, pH 7.33"}, "[8]": {"substrate": "O=CC(=O)c1ccccc1", "test": "purified protein", "assay_type": "biochemical, Trypanosoma brucei", "conditions": "100 µM NADPH, 25 mM HEPES, 150 mM NaCl, pH 7.33"}, "[9]": {"substrate": "O=Cc1ccc([N+](=O)[O-])cc1", "test": "purified protein", "assay_type": "biochemical, Trypanosoma brucei", "conditions": "100 µM NADPH, 25 mM HEPES, 150 mM NaCl, pH 7.33"}, "[10]": {"substrate": "O=Cc1cccc([N+](=O)[O-])c1", "test": "purified protein", "assay_type": "biochemical, Trypanosoma brucei", "conditions": "100 µM NADPH, 25 mM HEPES, 150 mM NaCl, pH 7.33"}, "[11]": {"substrate": "O=Cc1ccccc1[N+](=O)[O-]", "test": "purified protein", "assay_type": "biochemical, Trypanosoma brucei", "conditions": "100 µM NADPH, 25 mM HEPES, 150 mM NaCl, pH 7.33"}, "[12]": {"substrate": "O=CC=O", "test": "purified protein", "assay_type": "biochemical, Leishmania infantum", "conditions": "100 µM NADPH, 25 mM HEPES, 150 mM NaCl, pH 7.33"}, "[13]": {"substrate": "O=Cc1cccc([N+](=O)[O-])c1", "test": "purified protein", "assay_type": "biochemical, Leishmania infantum", "conditions": "100 µM NADPH, 25 mM HEPES, 150 mM NaCl, pH 7.33"}, "[14]": {"substrate": "CC(=O)C=O", "test": "purified protein", "assay_type": "biochemical, Trypanosoma cruzi", "conditions": "100 µM NADPH, 25 mM HEPES, 150 mM NaCl, pH 7.33"}, "[15]": {"substrate": "O=CC(=O)c1ccccc1", "test": "purified protein", "assay_type": "biochemical, Trypanosoma cruzi", "conditions": "100 µM NADPH, 25 mM HEPES, 150 mM NaCl, pH 7.33"}, "[16]": {"substrate": "O=CC(O)CO", "test": "purified protein", "assay_type": "biochemical, Trypanosoma cruzi", "conditions": "100 µM NADPH, 25 mM HEPES, 150 mM NaCl, pH 7.33"}, "[17]": {"substrate": "O=CC=O", "test": "purified protein", "assay_type": "biochemical, Trypanosoma cruzi", "conditions": "100 µM NADPH, 25 mM HEPES, 150 mM NaCl, pH 7.33"}, "[18]": {"substrate": "O=Cc1ccccc1[N+](=O)[O-]", "test": "purified protein", "assay_type": "biochemical, Trypanosoma cruzi", "conditions": "100 µM NADPH, 25 mM HEPES, 150 mM NaCl, pH 7.33"}}}
{"molecule": "Leishmania infantum prostaglandin F synthase 1 (LiPGFS1) (enzyme)", "values": [{"measurement": "percent of the protein eluting as dimer", "setting": "[1]", "result": 25, "unit": "%"}, {"measurement": "stoichiometry N", "setting": "[1]", "result": 2}]}
{"molecule": "LiPGFS1 (Leishmania infantum) (protein, synthetic full-length ORF (GeneART), pET15b-TEV, E. coli, His6 tag cut with TEV protease; mainly monomer) MTGKCTHVTLGNGVQVPQLGIGTWEAKNGNEVVQNIKWAINAGYRHIDTAHYYKNEKGVGQGISECGVPRSDIFVTTKLWNYDHGYESALAAFEQSRQALGVEYVDLYLIHWPGPNRSYIETWRAFEKLYEMKKVRAIGVSNFEPHHLDDLLANCTVPPMVNQVEMHPHFQQKALRAYCAEKNIAVTAWRPLGKGALLTEPQLVELAEKHKRSAAQVIIRWLIQLGVIAIPKSSHEERIKQNFDVFDFELSPEDMRRLESMDKNSRIGPSPETFFPTECK", "values": [{"measurement": "Km", "setting": "[2]", "result": "800 ± 70", "unit": "µM"}, {"measurement": "kcat", "setting": "[2]", "result": "8.72 ± 0.17", "unit": "s⁻¹"}, {"measurement": "kcat/Km", "setting": "[2]", "result": 10900, "unit": "M⁻¹ s⁻¹"}, {"measurement": "Km", "setting": "[3]", "result": "140 ± 8", "unit": "µM"}, {"measurement": "kcat", "setting": "[3]", "result": "10.4 ± 0.22", "unit": "s⁻¹"}, {"measurement": "kcat/Km", "setting": "[3]", "result": 74300, "unit": "M⁻¹ s⁻¹"}, {"measurement": "Km", "setting": "[4]", "result": "2870 ± 80", "unit": "µM"}, {"measurement": "kcat", "setting": "[4]", "result": "8.72 ± 0.11", "unit": "s⁻¹"}, {"measurement": "kcat/Km", "setting": "[4]", "result": 3040, "unit": "M⁻¹ s⁻¹"}, {"measurement": "Km", "setting": "[5]", "result": "430 ± 26", "unit": "µM"}, {"measurement": "kcat", "setting": "[5]", "result": "0.48 ± 0.01", "unit": "s⁻¹"}, {"measurement": "kcat/Km", "setting": "[5]", "result": 1110, "unit": "M⁻¹ s⁻¹"}, {"measurement": "Km", "setting": "[6]", "result": "320 ± 20", "unit": "µM"}, {"measurement": "kcat", "setting": "[6]", "result": "8.5 ± 0.21", "unit": "s⁻¹"}, {"measurement": "kcat/Km", "setting": "[6]", "result": 26600, "unit": "M⁻¹ s⁻¹"}]}
{"molecule": "TbPGFS (Trypanosoma brucei brucei) (protein, full-length ORF from genomic DNA, pET15b-TEV, E. coli, His6 tag cut with TEV protease; monomer) MALTQSLKLSNGVMMPVLGFGMWKLQDGNEAETATMWAIKSGYRHIDTAAIYKNEESAGRAIASCGVPREELFVTTKLWNSDQGYESTLSAFEKSIKKLGLEYVDLYLIHWPGKDKFIDTWKAFEKLYADKKVRAIGVSNFHEHHIEELLKHCKVAPMVNQIELHPLLNQKALCEYCKSKNIAVTAWSPLGQGHLVEDARLKAIGGKYGKTAAQVMLRWEIQAGVITIPKSGNEARIKENGNIFDFELTAEDIQVIDGMNAGHRYGPDPEVFMNDF", "values": [{"measurement": "kcat", "setting": "[7]", "result": "0.38 ± 0.007", "unit": "s⁻¹"}, {"measurement": "kcat/Km", "setting": "[7]", "result": 38000, "unit": "M⁻¹ s⁻¹"}, {"measurement": "Km", "setting": "[8]", "result": "5 ± 0.8", "unit": "µM"}, {"measurement": "kcat", "setting": "[8]", "result": "0.34 ± 0.014", "unit": "s⁻¹"}, {"measurement": "kcat/Km", "setting": "[8]", "result": 68000, "unit": "M⁻¹ s⁻¹"}, {"measurement": "Km", "setting": "[9]", "result": "4.3 ± 0.2", "unit": "µM"}, {"measurement": "kcat", "setting": "[9]", "result": "0.43 ± 0.008", "unit": "s⁻¹"}, {"measurement": "kcat/Km", "setting": "[9]", "result": 100000, "unit": "M⁻¹ s⁻¹"}, {"measurement": "Km", "setting": "[10]", "result": "2 ± 0.1", "unit": "µM"}, {"measurement": "kcat", "setting": "[10]", "result": "0.34 ± 0.005", "unit": "s⁻¹"}, {"measurement": "kcat/Km", "setting": "[10]", "result": 170000, "unit": "M⁻¹ s⁻¹"}, {"measurement": "Km", "setting": "[11]", "result": "3 ± 0.3", "unit": "µM"}, {"measurement": "kcat", "setting": "[11]", "result": "0.41 ± 0.002", "unit": "s⁻¹"}, {"measurement": "kcat/Km", "setting": "[11]", "result": 140000, "unit": "M⁻¹ s⁻¹"}]}
{"molecule": "LiPGFS2 (Leishmania infantum) (protein, full-length ORF from genomic DNA, pET15b-TEV, E. coli, His6 tag cut with TEV protease; monomer) MADVGKAMVTLSNGVQMPQLGLGVWQSPAGEVTANAVKWALCAGYRHIDTAAIYKNEESVGAGLRASGVPREDVFITTKLWNTEQGYESTLAAFEESRQKLGVDYIDLYLIHWPRGKDIVSKEGKKYLDSWRAFEQLYKDKKVRAIGVSNFHIHHLEDVLAMCTVTPMVNQVELHPLNNQAELRAFCDAKQIKVEAWSPLGQGKLLSNPILAAIGAKYNKTAAQVILRWNIQKNLITIPKSVHKERIEENADVFNFELGAEDVMRIDALNTNSRYGPDPDEAQF", "values": [{"measurement": "kcat", "setting": "[2]", "result": "1.13 ± 0.01", "unit": "s⁻¹"}, {"measurement": "kcat/Km", "setting": "[2]", "result": 56500, "unit": "M⁻¹ s⁻¹"}, {"measurement": "Km", "setting": "[12]", "result": "560 ± 50", "unit": "µM"}, {"measurement": "kcat", "setting": "[12]", "result": "1.05 ± 0.02", "unit": "s⁻¹"}, {"measurement": "kcat/Km", "setting": "[12]", "result": 1880, "unit": "M⁻¹ s⁻¹"}, {"measurement": "Km", "setting": "[5]", "result": "4 ± 0.6", "unit": "µM"}, {"measurement": "kcat", "setting": "[5]", "result": "1.13 ± 0.05", "unit": "s⁻¹"}, {"measurement": "kcat/Km", "setting": "[5]", "result": 283000, "unit": "M⁻¹ s⁻¹"}, {"measurement": "Km", "setting": "[13]", "result": "2 ± 0.3", "unit": "µM"}, {"measurement": "kcat", "setting": "[13]", "result": "1.04 ± 0.02", "unit": "s⁻¹"}, {"measurement": "kcat/Km", "setting": "[13]", "result": 520000, "unit": "M⁻¹ s⁻¹"}, {"measurement": "Km", "setting": "[6]", "result": "2.4 ± 0.3", "unit": "µM"}, {"measurement": "kcat", "setting": "[6]", "result": "1.04 ± 0.02", "unit": "s⁻¹"}, {"measurement": "kcat/Km", "setting": "[6]", "result": 433000, "unit": "M⁻¹ s⁻¹"}]}
{"molecule": "TcAKR (Trypanosoma cruzi) (protein, full-length ORF, pET15b-TEV, E. coli Rosetta (DE3) pLysS, His6 tag cut with TEV protease; monomer) MNCNYNCVTLHNSAQMPQLGLGVWRAQDGAETANAVRWAIEAGYRHIDTACIYNNEKGVGQGIRESGVPREEVWVTTKVWNSDQGYEKTLAAFERSRELLGLEYIDLYLIHWPGKKKFVDTWKALEKLYEEKKVRAIGVSNFEPHHLTELFKSCKIRPMVNQVELHPLFQQRALREFCKQHNIAVTAWSPLGSGDEAGILKNHVLGEIAKKHNKSPAQVVIRWDIQHGIVTIPKSTNKGRIQENFNVWDFKLTEEEMRQIDELNEDKRIGADPDNFFPGGEE", "values": [{"measurement": "kcat", "setting": "[14]", "result": "4.69 ± 0.03", "unit": "s⁻¹"}, {"measurement": "kcat/Km", "setting": "[14]", "result": 19500, "unit": "M⁻¹ s⁻¹"}, {"measurement": "Km", "setting": "[15]", "result": "50 ± 3", "unit": "µM"}, {"measurement": "kcat", "setting": "[15]", "result": "4.46 ± 0.08", "unit": "s⁻¹"}, {"measurement": "kcat/Km", "setting": "[15]", "result": 89200, "unit": "M⁻¹ s⁻¹"}, {"measurement": "Km", "setting": "[16]", "result": "1500 ± 170", "unit": "µM"}, {"measurement": "kcat", "setting": "[16]", "result": "4.94 ± 0.11", "unit": "s⁻¹"}, {"measurement": "kcat/Km", "setting": "[16]", "result": 3290, "unit": "M⁻¹ s⁻¹"}, {"measurement": "Km", "setting": "[17]", "result": "8300 ± 310", "unit": "µM"}, {"measurement": "kcat", "setting": "[17]", "result": "4.56 ± 0.05", "unit": "s⁻¹"}, {"measurement": "kcat/Km", "setting": "[17]", "result": 549, "unit": "M⁻¹ s⁻¹"}, {"measurement": "Km", "setting": "[18]", "result": "710 ± 80", "unit": "µM"}, {"measurement": "kcat", "setting": "[18]", "result": "2.25 ± 0.11", "unit": "s⁻¹"}, {"measurement": "kcat/Km", "setting": "[18]", "result": 3170, "unit": "M⁻¹ s⁻¹"}]}
